# Results as given in patent publication US20200317768A1 (published 2020).
# Changes are numbered by the printed parent chain.
# T1: human FcγRIIaR extracellular domain with C-terminal His-tag (human, UniProt P12318 34-217)
# T1 construct: Expressed in FreeStyle 293 cells and purified; also called human FcγRIIa (type R); FcgRIIaR; not shown: C-terminal His-tag
# T1 chain: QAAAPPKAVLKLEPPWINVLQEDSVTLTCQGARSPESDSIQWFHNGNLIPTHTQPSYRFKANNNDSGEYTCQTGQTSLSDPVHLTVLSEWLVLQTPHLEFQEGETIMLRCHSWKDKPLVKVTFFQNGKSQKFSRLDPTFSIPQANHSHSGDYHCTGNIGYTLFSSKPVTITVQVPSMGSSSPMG
# T2: human FcγRIIaH extracellular domain with C-terminal His-tag (human, UniProt P12318 34-217)
# T2 construct: Expressed in FreeStyle 293 cells and purified; also called human FcγRIIa (type H); FcgRIIaH; not shown: C-terminal His-tag
# T2 sequence: T1 chain with R134H
# T3: cynomolgus monkey FcγRIIa1 extracellular domain with C-terminal His-tag (cynomolgus monkey)
# T3 construct: Expressed in FreeStyle 293 cells and purified; also called cyno FcγRIIa1; cynoFcgRIIa1; not shown: C-terminal His-tag
# T3 chain: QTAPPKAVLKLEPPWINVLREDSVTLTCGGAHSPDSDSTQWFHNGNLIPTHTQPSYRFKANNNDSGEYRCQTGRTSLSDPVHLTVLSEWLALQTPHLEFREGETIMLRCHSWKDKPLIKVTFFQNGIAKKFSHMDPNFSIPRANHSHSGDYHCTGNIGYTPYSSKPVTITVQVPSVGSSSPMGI
# T4: cynomolgus monkey FcγRIIa3 extracellular domain with C-terminal His-tag (cynomolgus monkey)
# T4 construct: Expressed in FreeStyle 293 cells and purified; also called cyno FcγRIIa3; cynoFcgRIIa3; not shown: C-terminal His-tag
# T4 chain: T3 chain with P95T, T121A, A128S, H133P, D135N
# T5: human FcγRIIb extracellular domain with C-terminal His-tag (human, UniProt P31994 43-217)
# T5 construct: Expressed in FreeStyle 293 cells and purified; also called humanFcgRIIb; not shown: C-terminal His-tag
# T5 sequence: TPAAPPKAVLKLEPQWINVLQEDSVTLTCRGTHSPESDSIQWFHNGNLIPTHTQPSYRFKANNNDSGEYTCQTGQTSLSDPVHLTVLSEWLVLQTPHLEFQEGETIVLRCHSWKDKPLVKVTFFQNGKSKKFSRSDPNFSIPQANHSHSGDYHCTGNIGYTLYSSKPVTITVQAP
# T6: cynomolgus monkey FcγRIIa2 extracellular domain with C-terminal His-tag (cynomolgus monkey)
# T6 construct: Expressed in FreeStyle 293 cells and purified; also called cyno FcγRIIa2; cynoFcgRIIa2; not shown: C-terminal His-tag
# T6 chain: T3 chain with P95T, T121A, I127K, A128S, K130N, D135N, R142Q
# T7: cynomolgus monkey FcγRIIIaS extracellular domain with C-terminal His-tag (cynomolgus monkey, UniProt Q8SPW2 21-206 at identity 1.00))
# T7 construct: Expressed in FreeStyle 293 cells and purified; also called cyno FcγRIIIaS; cynoFcγRIIIaS; not shown: C-terminal His-tag
# T7 chain: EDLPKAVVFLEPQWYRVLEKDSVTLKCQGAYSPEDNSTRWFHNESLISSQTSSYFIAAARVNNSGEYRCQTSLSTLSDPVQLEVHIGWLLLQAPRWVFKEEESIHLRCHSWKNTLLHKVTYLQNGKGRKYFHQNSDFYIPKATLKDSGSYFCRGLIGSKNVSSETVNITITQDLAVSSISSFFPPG
# T8: cynomolgus monkey FcγRIIb extracellular domain with C-terminal His-tag (cynomolgus monkey)
# T8 construct: Expressed in FreeStyle 293 cells and purified; also called cyno FcγRIIb; cynoFcγRIIb; not shown: C-terminal His-tag
# T8 chain: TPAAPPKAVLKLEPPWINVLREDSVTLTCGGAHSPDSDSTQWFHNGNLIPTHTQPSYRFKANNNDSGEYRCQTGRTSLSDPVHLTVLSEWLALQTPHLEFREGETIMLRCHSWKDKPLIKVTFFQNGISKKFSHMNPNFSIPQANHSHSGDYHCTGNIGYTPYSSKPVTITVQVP
# B1: M103205H795-MY201 / M103202L889-SK1 (antibody, human IgG1, kappa)
# heavy: QVTLKESGPVLVKPTETLTLTCTVSGIDLSHDDISWVRQAPGKGLEWVGIISYAGSTYYASWAKGRLTISKDTSKNQVVLTMTNMDPVDTATYYCARGVPAYSHGGDLWGQGTLVTVSSASTKGPSVFPLAPSSKSTSGGTAALGCLVKDYFPEPVTVSWNSGALTSGVHTFPAVLQSSGLYSLSSVVTVPSSSLGTQTYICNVNHKPSNTKVDKKVEPKSCDKTHTCPPCPAPELLNGPSVFLFPPKPKDTLMISRTPEVTCVVVDVSDEDPEVKFNWYVDGVEVHNAKTKPREEQYNSTYRVVSVLTVLHQDWLNGKEYKCKVSNKALPKPIEKTISKAKGQPREPQVYTLPPSREEMTKNQVSLTCLVKGFYPSDIAVEWESNGQPENNYKTTPPVLDSDGSFFLYSKLTVDKSRWQQGNVFSCSVMHEALHNHYTQKSLSLSP
# light: DIVMTQSPATLSLSPGERATLSCTSSQSVYHANWLSWFQQKPGQPPKLLIYWASTLAYGVPSRFSGSGSGTDFTLTISSLQPEDAATYYCAGGYGGGRYAFGQGTKVEIKRTVAAPSVFIFPPSDEQLKSGTASVVCLLNNFYPREAKVQWKVDNALQSGNSQESVTEQDSKDSTYSLSSTLTLSKADYEKHKVYACEVTHQGLSSPVTKSFNRGEC
# notes: Fc variant of M103205H795-SG1, expressed with M103202L889-SK1 as light chain; also called MS1032LO06-MY201
# B2: M103205H795-MY202 / M103202L889-SK1 (antibody, human IgG1, kappa)
# heavy: B1 heavy with S241V
# light: B1 light
# notes: Fc variant of M103205H795-SG1, expressed with M103202L889-SK1 as light chain
# B3: M103205H795-MY208 / M103202L889-SK1 (antibody, human IgG1, kappa)
# heavy: B1 heavy with Q297L, K332A
# light: B1 light
# notes: as for B2
# B4: M103205H795-MY204 / M103202L889-SK1 (antibody, human IgG1, kappa)
# heavy: B1 heavy with S241V, D270E, Q297L
# light: B1 light
# notes: as for B2
# B5: M103205H795-MY206 / M103202L889-SK1 (antibody, human IgG1, kappa)
# heavy: B1 heavy with S241V, Q297L
# light: B1 light
# notes: as for B2
# B6: M103205H795-MY205 / M103202L889-SK1 (antibody, human IgG1, kappa)
# heavy: B1 heavy with Q297L
# light: B1 light
# notes: Fc variant of M103205H795-SG1, expressed with M103202L889-SK1 as light chain; also called MS1032LO06-MY205
# B7: M103205H795-MY207 / M103202L889-SK1 (antibody, human IgG1, kappa)
# heavy: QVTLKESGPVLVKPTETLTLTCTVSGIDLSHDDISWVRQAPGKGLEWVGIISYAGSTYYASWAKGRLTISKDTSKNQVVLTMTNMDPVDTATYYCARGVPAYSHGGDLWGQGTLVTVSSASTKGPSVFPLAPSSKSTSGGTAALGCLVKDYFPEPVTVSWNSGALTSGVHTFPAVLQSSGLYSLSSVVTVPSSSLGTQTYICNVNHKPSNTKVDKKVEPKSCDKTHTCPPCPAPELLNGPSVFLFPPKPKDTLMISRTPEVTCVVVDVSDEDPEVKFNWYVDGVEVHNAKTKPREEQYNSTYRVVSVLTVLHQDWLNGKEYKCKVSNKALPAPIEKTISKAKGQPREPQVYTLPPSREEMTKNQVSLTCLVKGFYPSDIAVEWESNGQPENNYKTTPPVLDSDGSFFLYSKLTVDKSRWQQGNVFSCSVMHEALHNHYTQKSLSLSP
# light: B1 light
# notes: as for B2
# B8: M103205H795-MY210 / M103202L889-SK1 (antibody, human IgG1, kappa)
# heavy: B1 heavy with K328T
# light: B1 light
# notes: as for B2
# Biological target: T1, human FcγRIIaR extracellular domain …
# Experiment: SPR (Biacore); KD of SG1 divided by KD of the variant for this FcgR;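 also: relative to parent M103205H795-SG1 carrying the SG1 human heavy chain constant region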
# Experimental: (§1) Regarding such interactions, KD values were calculated using the following 1:1 binding model described in BIACORE® T100 Software Handbook BR1006-48 Edition AE.
# (§2) The behavior of interacting molecules according to the 1:1 binding model on BIACORE® can be described by Equation 1: Req=C·R max/(KD+C)+RI, wherein, Req is a plot of steady-state binding levels to analyte concentration. C is concentration, RI is bulk refractive index contribution in the sample, and Rmax is analyte binding capacity of the surface. When this equation is rearranged, KD can be expressed as Equation 2: KD=C·Rmax/(Req−RI)−C. KD can be calculated by substituting the values of Rmax, RI, and C into Equation 1 or Equation 2. From the current measurement conditions, RI=0, C=2 μmol/L can be used.
# (§3) The variants were expressed using M103202L889-SK1 as the light chain and their affinity was analyzed.
row,KD fold (SG1 = 1) [fold],Binder
1,0.6,B1
2,0.9,B2
3,0.5,B3
4,0.4,B4
5,0.8,B5
6,0.8,B6
7,0.4,B7
8,0.8,B8

# Biological target: T2, human FcγRIIaH extracellular domain …
# Experiment: as above
# Experimental: as §1, §2, §3
row,KD fold (SG1 = 1) [fold],Binder
1,0.8,B1
2,0.6,B2
3,0.8,B3
4,0.5,B4
5,0.7,B5
6,1.5,B6
7,0.5,B7
8,0.6,B8

# Biological target: T9, human FcγRIIIaV extracellular domain with C-terminal His-tag (human, UniProt P08637 17-208)
# T9 construct: Expressed in FreeStyle 293 cells and purified; also called FcgRIIIaV; not shown: C-terminal His-tag
# T9 sequence (P08637 17-208 F176V): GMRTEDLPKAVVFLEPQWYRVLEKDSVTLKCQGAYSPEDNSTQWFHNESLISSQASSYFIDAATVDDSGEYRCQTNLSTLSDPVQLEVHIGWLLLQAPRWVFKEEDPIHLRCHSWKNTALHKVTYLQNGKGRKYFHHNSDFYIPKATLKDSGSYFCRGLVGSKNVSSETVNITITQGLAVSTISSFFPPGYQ
# Experiment: as above
# Experimental: as §1, §2, §3
row,KD fold (SG1 = 1) [fold],Binder
1,0.05,B1
2,0.09,B2
3,0.08,B3
4,0.07,B4
5,0.1,B5
6,0.06,B6
7,0.1,B7
8,0.05,B8

# Biological target: T3, cynomolgus monkey FcγRIIa1 …
# Experiment: as above
# Experimental: as §1, §2, §3
row,KD fold (SG1 = 1) [fold],Binder
1,2.3,B1
2,5.3,B2
3,2.7,B3
4,2.5,B4
5,4,B5
6,3.5,B6
7,2.1,B7
8,3.4,B8

# Biological target: T4, cynomolgus monkey FcγRIIa3 …
# Experiment: as above
# Experimental: as §1, §2, §3
row,KD fold (SG1 = 1) [fold],Binder
1,4.4,B1
2,7.7,B2
3,2.5,B3
4,8.8,B4
5,5.7,B5
6,5.7,B6
7,2.5,B7
8,7.4,B8

# Biological target: T5, human FcγRIIb extracellular domain with …
# Experiment: as above
# Experimental: as §1, §2, §3
row,KD fold (SG1 = 1) [fold],Binder
1,4.2,B1
2,6.5,B2
3,4.2,B3
4,3.5,B4
5,5.1,B5
6,8,B6
7,2.9,B7
8,4.7,B8

# Biological target: T6, cynomolgus monkey FcγRIIa2 …
# Experiment: as above
# Experimental: as §1, §2, §3
row,KD fold (SG1 = 1) [fold],Binder
1,8.6,B1
2,8,B2
3,5.4,B3
4,3.6,B4
5,6.5,B5
6,4.6,B6
7,8.6,B7
8,8.1,B8

# Biological target: T7, cynomolgus monkey FcγRIIIaS …
# Experiment: as above
# Experimental: as §1, §2, §3
row,KD fold (SG1 = 1) [fold],Binder
1,0.06,B1
2,0.09,B2
3,0.18,B3
4,0.1,B4
5,0.11,B5
6,0.06,B6
7,0.08,B7
8,0.15,B8

# Biological target: T8, cynomolgus monkey FcγRIIb extracellular …
# Experiment: as above
# Experimental: as §1, §2, §3
row,KD fold (SG1 = 1) [fold],Binder
1,4.3,B1
2,3.9,B2
3,2.8,B3
4,3.2,B4
5,4,B5
6,7.2,B6
7,2.2,B7
8,6.4,B8
